Patent US20180327473A1 (published 2018)
Numbering of substitutions follows the chain as printed.

T1: human alpha fetoprotein (hAFP158) peptide on HLA-A2 (human)
T1 peptide: FMNKFIYEI

B1: mTCR-1 (TCR, V domains shown)
Valpha: QQKVQQSPESLIVPEGGMASLNCTSSDRNVDYFWWYRQHSGKSPKMLMSIFSNGEKEEGRFTVHLNKASLHTSLHIRDSQPSDSALYLCAASITNAYKVIFGKGTHLHVLP
Vbeta: EAAVTQSPRNKVTVTGGNVTLSCRQTNSHNYMYWYRQDTGHGLRLIHYSYGAGNLQIGDVPDGYKATRTTQEDFFLLLELASPSQTSLYFCASSDAGTSQNTLYFGAGTRLSVL
B2: mTCR-2 (TCR, V domains shown)
Valpha: B1 Valpha with I93T, T94V
Vbeta: B1 Vbeta
B3: mTCR-11 (TCR, V domains shown)
Valpha: B1 Valpha with I93K, N95G, A96G, I100V, K103S, H106R, H108L, L110S
Vbeta: B1 Vbeta
B4: mTCR-8 (TCR, V domains shown)
Valpha: B1 Valpha with T94S, N95G, A96G, I100V, K103S, H106R, H108L, L110S
Vbeta: B1 Vbeta
B5: mTCR-38 (TCR, V domains shown)
Valpha: B1 Valpha with S92T, I93L, N95G, A96G, I100V, K103S, H106R, H108L, L110S
Vbeta: B1 Vbeta
B6: mTCR-17 (TCR, V domains shown)
Valpha: B1 Valpha with I93M, N95G, A96G, I100V, K103S, H106R, H108L, L110S
Vbeta: B1 Vbeta
B7: mTCR-3 (TCR, V domains shown)
Valpha: B1 Valpha with I93M, T94A, N95G, A96G, I100V, K103S, H106R, H108L, L110S
Vbeta: B1 Vbeta with S99A
B8: mTCR-6 (TCR, V domains shown)
Valpha: B1 Valpha with I93M, T94I
Vbeta: B1 Vbeta with T98V
B9: mTCR-10 (TCR, V domains shown)
Valpha: B1 Valpha with T94V, N95G, A96G, I100V, K103S, H106R, H108L, L110S
Vbeta: B1 Vbeta with A96H, S99G

Target: T1, human alpha fetoprotein (hAFP158) …
Test: multimer staining

binding result	Binder
recognises	B1
recognises	B2
recognises	B3
recognises	B4
recognises	B5
recognises	B6
recognises	B7
recognises	B8
recognises	B9
